Source: paper PMC8921914

Experiments:
FcγRI = FcγRI (UniProt P12314); test: SPR
FcRn = FcRn (UniProt P55899); test: SPR
Sequence of UniProt P55899 (P55899 whole entry, looked up, tested part not stated): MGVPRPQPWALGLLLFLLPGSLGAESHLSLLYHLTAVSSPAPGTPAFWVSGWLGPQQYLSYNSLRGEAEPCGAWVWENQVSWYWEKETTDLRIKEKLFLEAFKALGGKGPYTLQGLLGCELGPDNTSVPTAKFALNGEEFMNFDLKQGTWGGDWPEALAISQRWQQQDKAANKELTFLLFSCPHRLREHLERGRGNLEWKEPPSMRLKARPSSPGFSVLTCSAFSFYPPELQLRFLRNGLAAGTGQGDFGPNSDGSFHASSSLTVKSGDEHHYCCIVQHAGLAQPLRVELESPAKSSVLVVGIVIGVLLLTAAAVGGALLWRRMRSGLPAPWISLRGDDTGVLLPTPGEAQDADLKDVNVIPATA

Sequence of UniProt P12314 (P12314 16-374): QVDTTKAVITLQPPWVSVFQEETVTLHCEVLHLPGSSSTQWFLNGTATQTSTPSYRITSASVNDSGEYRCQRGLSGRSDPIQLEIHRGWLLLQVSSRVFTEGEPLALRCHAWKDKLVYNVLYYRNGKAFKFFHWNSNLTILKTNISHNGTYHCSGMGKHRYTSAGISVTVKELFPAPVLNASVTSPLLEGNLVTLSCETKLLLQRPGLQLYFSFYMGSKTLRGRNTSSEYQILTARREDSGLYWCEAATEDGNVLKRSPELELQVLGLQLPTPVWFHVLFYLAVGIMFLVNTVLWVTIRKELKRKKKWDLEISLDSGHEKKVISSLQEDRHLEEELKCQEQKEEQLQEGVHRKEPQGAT

## CLN-049 (bispecific antibody)
FcγRI
  Kd: > 1000 µM
FcRn
  Kd: > 1000 µM
